From US20100135991A1 (published 2010)
One block for each binder: values may come before it.

What was measured:
[1] = molecular target: T1, zinc-binding alcohol dehydrogenase domain containing 2 (UniProt Q8N4Q0 1-377, limits assumed); assay: Western blot
T1 construct: also called unrelated protein
T1 sequence (looked up): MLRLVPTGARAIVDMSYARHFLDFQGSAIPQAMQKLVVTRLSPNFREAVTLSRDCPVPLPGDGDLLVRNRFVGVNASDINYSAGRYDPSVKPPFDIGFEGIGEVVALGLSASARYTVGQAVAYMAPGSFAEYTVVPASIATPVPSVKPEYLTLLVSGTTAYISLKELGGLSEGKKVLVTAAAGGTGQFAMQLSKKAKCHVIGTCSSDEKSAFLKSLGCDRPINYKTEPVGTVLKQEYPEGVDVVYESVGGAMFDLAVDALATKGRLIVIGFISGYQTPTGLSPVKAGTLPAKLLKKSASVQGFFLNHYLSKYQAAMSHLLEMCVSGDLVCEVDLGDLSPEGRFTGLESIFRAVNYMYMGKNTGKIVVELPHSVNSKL
Description: Western blot was performed to confirm the binding specificity of antibody 3B6.1, 6A4.28 and 9A6.2. […] The amino acid sequences of the heavy and light chain variable region of antibody 3B6.1 (IgM, K), 6A4.28 (IgM, K) and 9A6.2 (IgM, K) are shown in FIGS. 3A and 3B, 4A and 4B, and 5A and 5B, respectively.

[2] = molecular target: T2, human ORP150-3x Flag with deletion of amino acids 723-732 (human, UniProt Q9Y4L1 33-999); assay: anti-FLAG capture ELISA and Western blot
T2 sequence: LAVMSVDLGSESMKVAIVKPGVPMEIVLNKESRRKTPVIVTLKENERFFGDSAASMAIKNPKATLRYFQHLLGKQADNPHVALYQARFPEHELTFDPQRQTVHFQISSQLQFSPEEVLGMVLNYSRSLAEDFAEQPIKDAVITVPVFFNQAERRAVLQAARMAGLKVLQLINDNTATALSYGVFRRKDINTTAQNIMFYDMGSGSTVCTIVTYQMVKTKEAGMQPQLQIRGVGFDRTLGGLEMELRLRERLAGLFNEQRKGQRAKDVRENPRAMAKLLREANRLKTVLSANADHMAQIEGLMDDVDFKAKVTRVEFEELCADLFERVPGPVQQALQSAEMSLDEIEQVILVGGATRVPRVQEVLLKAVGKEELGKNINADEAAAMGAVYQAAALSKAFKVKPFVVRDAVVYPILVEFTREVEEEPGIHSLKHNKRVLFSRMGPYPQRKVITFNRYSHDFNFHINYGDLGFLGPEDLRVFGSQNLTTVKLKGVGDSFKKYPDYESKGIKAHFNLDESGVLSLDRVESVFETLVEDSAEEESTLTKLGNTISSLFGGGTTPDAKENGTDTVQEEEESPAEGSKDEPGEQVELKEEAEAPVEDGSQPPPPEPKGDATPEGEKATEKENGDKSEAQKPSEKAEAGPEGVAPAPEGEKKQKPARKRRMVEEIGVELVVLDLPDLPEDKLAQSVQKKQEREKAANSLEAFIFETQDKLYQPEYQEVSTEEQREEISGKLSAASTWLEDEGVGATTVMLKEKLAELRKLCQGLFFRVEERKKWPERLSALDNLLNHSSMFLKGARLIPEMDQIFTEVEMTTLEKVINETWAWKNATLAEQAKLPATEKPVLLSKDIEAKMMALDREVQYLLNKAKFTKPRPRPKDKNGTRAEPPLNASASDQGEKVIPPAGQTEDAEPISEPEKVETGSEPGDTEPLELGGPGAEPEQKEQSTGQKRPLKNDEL
Description: (§1) Binding of 5F4 to the ORP150 wild type or mutant proteins generated from the supernatant of the transfected cells were tested using ELISA assay by coating the surface with anti-FLAG antibody, allowing binding of the ORP150 proteins in the supernatant to the anti-FLAG antibody, and detecting binding of 5F4 to the ORP150 proteins.
(§2) Binding of 5F4 to the wild type or the mutant ORP150 proteins from the supernatant and cell lysates was also tested using Western blot assays by immunoprecipitation the ORP150 proteins from the supernatant or cell lysates using anti-FLAG antibody, and detecting binding of 5F4 to the ORP150 proteins on the Western blot. The anti-Flag M2 affinity gel (Sigma, Cat. No. A2220) was used to immuno-precipitate the recombinant human ORP150 from the supernatant and cell lysates of the transfected cells. The IP products were subjected to SDS-PAGE and then transferred onto nitrocellulose membrane for Western blotting. […] The blotting signal was detected with Immobilon Western-Chemiluminescent HRP Substrate kits (Millipore, Cat. No. WBKLS0500)
(§3) Based on the Western blotting with anti-FLAG antibody, all the deletion mutants of hORP150 were successfully expressed in Flp-In™ CHO Cells. […] To further characterize the epitope, additional mutant ORP150 proteins were generated. […]

[3] = molecular target: T3, human ORP150-3x Flag with deletion of amino acids 673-752 (human, UniProt Q9Y4L1 33-999); assay: anti-FLAG capture ELISA and Western blot
T3 construct: Deletion mutant made by overlapping PCR, expressed in Flp-In CHO cells
T3 sequence: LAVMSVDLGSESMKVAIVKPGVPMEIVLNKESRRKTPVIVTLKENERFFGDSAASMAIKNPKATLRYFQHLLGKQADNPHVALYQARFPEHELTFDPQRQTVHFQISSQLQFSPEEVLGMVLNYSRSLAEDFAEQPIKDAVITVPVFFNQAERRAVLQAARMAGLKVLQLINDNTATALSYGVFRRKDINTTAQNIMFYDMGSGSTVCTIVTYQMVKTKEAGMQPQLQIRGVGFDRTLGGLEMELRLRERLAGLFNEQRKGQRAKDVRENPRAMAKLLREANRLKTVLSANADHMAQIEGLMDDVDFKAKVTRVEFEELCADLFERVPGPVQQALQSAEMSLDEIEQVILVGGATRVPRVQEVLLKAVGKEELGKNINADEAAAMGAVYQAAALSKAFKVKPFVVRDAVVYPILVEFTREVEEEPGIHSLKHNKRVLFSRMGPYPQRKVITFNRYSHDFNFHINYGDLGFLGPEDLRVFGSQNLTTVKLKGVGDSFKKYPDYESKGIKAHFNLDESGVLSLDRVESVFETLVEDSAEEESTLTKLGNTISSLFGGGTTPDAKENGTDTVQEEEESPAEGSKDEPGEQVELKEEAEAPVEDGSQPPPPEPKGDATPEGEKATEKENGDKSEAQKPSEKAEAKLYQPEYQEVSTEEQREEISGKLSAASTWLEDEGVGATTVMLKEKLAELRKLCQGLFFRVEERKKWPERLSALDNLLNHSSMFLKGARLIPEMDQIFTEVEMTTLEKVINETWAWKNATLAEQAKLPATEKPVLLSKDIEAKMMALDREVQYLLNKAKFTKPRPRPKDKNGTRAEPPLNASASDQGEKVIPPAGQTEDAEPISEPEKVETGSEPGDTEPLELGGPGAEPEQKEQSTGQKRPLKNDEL
Description: as §1, §2, §3

binding result [1]: no binding
B1: antibody 9A6.2 (antibody, mouse IgM, V domains shown)
VH: EVKLVESGGGLVKPGGSLKLSCAASGFTFSSYAMSWVRQTPEKRLEWVASISSGGSTYYPDSVKGRFTISRDNARNILYLQMSSLRSEDTAMYYCARGRGYYAYYFDYWGQGTTLTVSS
VL: ETTVTQSPASLSVATGEKVTIRCITSTDIDDDMNWYQQKPGEPPKLLISEGNTLRPGVPSRFSSSGYGTDFVFTIENTLSEDVADYYCLQSDNMPFTFGSGTKLEIK
notes: Mouse IgM, kappa

binding result [2]: no binding
binding result [3]: no binding
B2: monoclonal antibody 5F4 (antibody, mouse IgM, V domains shown)
VH: QIQLVQSGPELKKPGETVKISCKASDYTFTDYSMHWVKQAPGKGLKWMGWINTETGEPTYADDFKGRFAFPLETSASTAYLQINNLKNEDTATYFCARNHGYNLAYWGQGTLVTVSA
VL: DIVMTQSQKFMSTSVGDRVSLTCKSSQNVRTAVTWYQQKPGQSPKALIYLASNRHTGVPDRFTGSGSGTDFTLTISNVQSEDLADYFCLQHWNYPLTFGGGTKLEIK
notes: Mouse IgM, kappa, from a hybridoma; also called m5F4; murine 5F4
